Experimental findings from patent US20190248902A1 (published 2019) are described below.

For test [1], the target named is T1, soluble human ASGR-1 carbohydrate binding domain (CBD; amino acid residues 154-281; N-terminal 6xHis tag) (human, UniProt P07306 154-281).
T1 construct: also called ASGR-1 CBD
T1 sequence: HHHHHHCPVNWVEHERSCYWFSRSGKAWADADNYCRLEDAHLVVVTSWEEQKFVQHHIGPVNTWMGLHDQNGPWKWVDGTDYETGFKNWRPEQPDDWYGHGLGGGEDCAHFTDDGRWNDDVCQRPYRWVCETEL
Description: Octet BLI, mAb on AR2G tips, 1:1 fit. (In BLI a coated tip is dipped into the sample, and binding shifts an interference pattern.)

Another test deals with T2, human ASGR-1 (wild type) (human, UniProt P07306 1-291).
T2 construct: also called wt ASGR1; huASGR-1
T2 sequence: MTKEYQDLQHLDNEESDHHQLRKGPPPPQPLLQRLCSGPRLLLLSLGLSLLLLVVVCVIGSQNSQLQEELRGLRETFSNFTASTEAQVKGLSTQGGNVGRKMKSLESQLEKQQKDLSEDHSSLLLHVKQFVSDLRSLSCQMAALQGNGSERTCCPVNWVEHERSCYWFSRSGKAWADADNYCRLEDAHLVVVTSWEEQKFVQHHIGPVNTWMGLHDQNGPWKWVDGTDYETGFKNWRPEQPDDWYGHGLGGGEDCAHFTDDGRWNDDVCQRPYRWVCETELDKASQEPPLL
Nature of the test: flow cytometry, CHO-S:huASGR-1 cells, 11-point titration. An outline of the steps:
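CHO-S cells stably expressing human ASGR-1 were multiplexed with dye-labelled parental cells and mouse ASGR-1 cells (30K cells/well). Antibodies were run as an 11-point 1:2 series from 100 nM for 30 min at 4°C, with CaCl2 (1 mM) washes, anti-human IgG-APC detection and PI live gating. EC50 from four-parameter fits of duplicate median signals.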

For orientation: Kd means the free concentration of one partner at which half of the binding sites on the other are occupied at equilibrium, for simple one-to-one binding. The low end stands for higher affinity, the high end for lower affinity. A word on the EC50: it is the concentration giving half of the maximal effect.

B1: 197G3 (antibody, V domains shown)
VH: QVQLVESGGGVVQPGRSLRLSCVASGFTFSSHGMHWVRQAPGKGLEWVAVIWYDGSNKNYADSVKGRFTISRDNSKNTLYLQMNSLRAEDTAVYYCARDPSVGYDGMDVWGQGTTVTVSS
VL: DIQMTQSPSSLSASVGDRVTITCRASQGIGNHLAWFQQKPGKAPKSLIYAASSLQSGVPSKFSGSRSGTDFSLTISSLQPEDFATYYCQQYSNYPVTFGPGTKVDIK
notes: mAb
B1: the affinity in test [1], expressed as Kd, was 0.8 nM. In the test with human ASGR-1 (wild type), the EC50 was 0.25 nM.

B2: 75G3 (antibody, V domains shown)
VH: QVQLQQWGAGLLKPSETLSLTCAVYGGSLSGSYWSWIRQPPGKGLEWIGEINLSGSTNYNPSLKSRVTISVDTSKSQFSLTLRSVTAADTAVYYCARDYGGLDYWGQGTLVTVSS
VL: EIVLTQSPGTLSLSPGERATLSCRARQNVDSSYLAWYQQKPGQAPRLLIYGASSRATGIPDRFSGSGSGTDFTLTISRLEPEDFAVFYCQQYERSPWTFGQGTKVEIK
notes: mAb
In test [1], B2 came in with a Kd of 1 nM. A half-maximal effect in the test with human ASGR-1 (wild type) (EC50) was put at 1 nM.

B3: 193E7 (antibody, V domains shown)
VH: QVQLQQWGAGLLKPSETLSLTCAVYGGSFSGYFWTWIRQPPGKGLEWIGEINHSGSTNYNPSLKSRVTISVDTSKNQFSLKLSSVTAADTAVYYCARDYGADYWGQGTLVAVSA
VL: DIQMTQSPSSLSASVGDRVTITCRASQGIRNDLGWYQQKPGKAPKRLIYSASSLQRGVPSRFSGSGSGTEFTLTISSLQPEDFATYYCLQHKRYPLTFGGGTKVEIK
notes: mAb
B3 gave a Kd in test [1] of 3.5 nM. This molecule also returned an EC50 in the test with human ASGR-1 (wild type) of 0.13 nM.

B4: 218G4 (antibody, V domains shown)
VH: QVQLVESGGGVVQPGRSLRLSCAASGFTFSSYGLHWVRQAPGKGLEWVAVIWYDGSNKYYADSVKGRFTISRDNSKNTLYLQMNSLRVEDTAVYYCANWYYYYYGMDVWGQGTTVTVSS
VL: QSVLTQPPSVSAAPGQKVTISCSGSSSNIGNNYVSWYQQLPGTAPKLLLYDSNKRPSGIPARFSGSKSGTSATLGITGLQTGDEADYYCGTWDSSLNTVVFGGGTKLTVL
notes: mAb
In turn, B4 showed a Kd in test [1] of 2.6 nM. It took 2.2 nM to reach a half-maximal effect in the test with human ASGR-1 (wild type) (EC50).

B5: 194C10 (antibody, V domains shown)
VH: QVQLQQWGAGLLKPSETLSLTCAVSGGSFRYYYWSWIRQPPGKGLEWFGEINHSGSTNYNPSLKSRVTISIDTSKNQFSLKLRSVTAADTAVYYCARDYGAFDIWGQGTMVTVSS
VL: EIVLTQSPGTLSLSPGERATLSCRASPSVNSGYLAWYQQKPGQTPRLLIFGASSRATGIPDRFSASGSGADFTLTISRLEPEDFAVYFCQQYESSPWTFGQGTKVEIK
notes: mAb
For the molecule B5, the affinity in test [1], expressed as Kd, was 4 nM. The 50% effective concentration (EC50) in the test with human ASGR-1 (wild type) worked out at 0.56 nM.

B6: 176H4 (antibody, V domains shown)
VH: QVQLVESGGGVVQPGRSLRLSCAASGFTFSSYGMHWVRQAPGKGLEWVAIIWYDGSYKYYADSVKGRFTISRDNSKNTLYLQMSSLRAEDTAVYYCARDAHDFWSGYFAYWGQGALVTVSS
VL: DIVMTQTPLSLSVTPGQPASISCKSSQSLLHGDGKTYLYWYLQKPGQPPQLLIYEVSNRFSGVPDRFSGSGSGTDFTLKISRVEAEDVGIYYCMQSIQIPWTFGQGTRVEIK
notes: mAb
B6 yielded an equilibrium dissociation constant (Kd) in test [1] of 0.8 nM. The same molecule had a concentration for a half-maximal effect (EC50) with human ASGR-1 (wild type) of 1 nM.
